Source: doi:10.1101/2025.09.11.675134, “Biodistribution-Driven Discovery Identifies a Glycosidase-Cleavable Linker to Reprogram Radiotheranostics” (bioRxiv, 2025)
Where two headings read alike, the source gives them in different places. Positions of bridges follow the written chain, without caps; N, C: chain ends. Non-standard residues stand in square brackets, D forms with d. Residues, ends and D or L forms follow the SMILES beside them. *: point of attachment. X1 = C[C@H](CCC(=O)*)[C@H]1CC[C@H]2[C@@H]3[C@H](O)C[C@@H]4C[C@@H](NC(=O)CNC(=O)CN5CCN(CC(=O)O)CCN(CC(=O)O)CCN(CC(=O)O)CC5)CC[C@]4(C)[C@H]3C[C@H](O)[C@]12C; DOTA = O=C(O)CN1CCN(CC(=O)O)CCN(CC(=O)*)CCN(CC(=O)O)CC1

Experiment: Ex vivo biodistribution screen of 111In-labeled DOTA-TATE derivatives in normal mice
Parameters: species or system athymic nude mice
Conditions: 2 h post-injection; for tissue uptake at 2 h: athymic nude, mouse, iv, 1 ug per mouse, total radioactivity; for Relative kidney retention, % rel. to DOTA-TATE: normal mice, 111In-DOTA-TATE set as 100%
Protocol: The panel of 10 compounds were then tested in an initial biodistribution screen of 9 organs assessed in non-tumor-bearing mice at specific timepoints following administration of the radioconjugates. Each agent was initially labeled with ^111In, a long-lived gamma-emitting radioisotope suitable for biodistribution studies, with high radiochemical yields and purity (Fig. S12). The compounds were then dosed (1.55 ± 0.12 MBq; 1 μg per mouse) in healthy athymic nude mice via intravenous (i.v.) injection in phosphate-buffered saline (PBS; vehicle). After 2 hours, the mice were sacrificed and ex vivo biodistribution analysis was performed (Fig. 2). […] This was an expected finding because this variant was designed to bind serum albumin.
Radiolabeling and In Vivo Evaluation of DOTA-TATE Variants:
Biodistribution, PET Quantification, and Dosimetry
Radiolabeling: To perform the initial biodistribution screen, radiolabeling of 10 compounds, including DOTA-TATE, was carried out using 111In (Cardinal Health, Arbutus, MD, USA), an affordable and readily available gamma -emitting radioisotope with a moderate half -life (2.83 days), which affords efficient DOTA radiolabeling and facilitates handling. 111InCl3 (28 – 36 MBq) was diluted with 0.4 M NH 4OAc buffer (pH 5.2) and combined with DOTA -TATE variants (20 μg). The solution was mixed well and then incubated at 90 °C for 30 min.
Radiolabeling efficiency and radiochemical purity were determined by radio -TLC and radio - HPLC. Radiochemical yield was >95% and the material was used without further purification.
The specific activity was 1.55 ± 0.12 TBq/g (41.9 ± 3.2 Ci/g). […]
Radio-instant thin-layer chromatography (radio-iTLC) was performed using silicic acid-impregnated glass microfiber paper strips (iTLC-SA, Varian, Lake Forest, CA, USA) as the stationary phase, and 50 mM EDTA in 100 mM NH4OAc (pH 5.5) as the mobile phase, analyzed with a radio-TLC scanner (AR-2000, Eckert-Ziegler, Wilmington, MA, USA). For Ac-225, equilibration was allowed for at least 12 hours before scanning the TLC strips to confirm initial scans. Radio-HPLC analysis (Agilent 1260 Infinity II, Agilent Technologies Inc., Santa Clara, CA, USA) was conducted on a TSK- Octadecyl-4PW column (5 µm, 4.6 mm ID × 15 cm, Tosoh
Co. Tokyo, Japan) with gradient elution using 0.1% trifluoroacetic acid in water as mobile phase A and 0.1% trifluoroacetic acid in acetonitrile as Mobile phase B. The elution sequence was 0-5 […]
PET imaging and biodistribution: For initial biodistribution screen studies, normal mice were administered 1.4 – 1.8 MBq (1 μg) of 111In-DOTA-TATE variants via tail vein injection and biodistribution studies were conducted at 2 hours post -injection (n = 2 – 4 per cohort).
For studies involving three variants (DOTA -TATE, DOTA-MVK(ε)-TATE, and DOTA-β-Gal-TATE), AR42J cells (5 × 10^6 cells per mouse) were subcutaneously inoculated into the right shoulder of the mice. Tumors were allowed to grow for 3 weeks, reaching a volume of 100 –200 mm³ before being used in subsequent experiments. For biodistribution or PET imaging studies, mice bearing subcutaneous AR42J tumors were administered 1.4 – 1.8 MBq (1 μg) of 111In-labeled DOTA-TATE variants or 2.7 – 4.9 MBq (1 μg) of 86Y-labeled DOTA-TATE variants via tail vein injection. Biodistribution studies with 111In-labeled DOTA -TATE variants were performed 1 hour post -injection (n = 3 per cohort), while studies with 86Y-labeled DOTA-TATE variants were conducted at 1, 4, and 24 hours post -injection (n = 3 per cohort). Mice were euthanized by CO2 asphyxiation, and 10 tissues, including tumors, were collected. All samples were weighed and counted on a gamma counter (2480 Wizard 3, Perkin Elmer Inc., Waltham, MA, USA). Results are presented as percentage of injected activity per gram (%IA/g) and mean values ± standard deviations.
PET imaging to assess the uptake of three 86Y-labeled DOTA-TATE variants (2.7 – 4.9 MBq, 1 […]

[1] = kidney, normal athymic nude mice, i.v. 1 μg, ex vivo, mean (± SD), n = 2–4, read-out: Kidney uptake
[2] = blood, normal athymic nude mice, i.v. 1 μg (1.4–1.8 MBq), ex vivo gamma counting, mean, n = 2–4, read-out: Blood uptake
[3] = femur, normal athymic nude mice, i.v. 1 μg, ex vivo, mean, n = 2–4, read-out: Femur uptake
[4] = heart, normal athymic nude mice, i.v. 1 μg, ex vivo, mean, n = 2–4, read-out: Heart uptake
[5] = intestine, normal athymic nude mice, i.v. 1 μg, ex vivo, mean, n = 2–4, read-out: Intestine uptake
[6] = liver, normal athymic nude mice, i.v. 1 μg, ex vivo, mean, n = 2–4, read-out: Liver uptake
[7] = lung, normal athymic nude mice, i.v. 1 μg, ex vivo, mean, n = 2–4, read-out: Lung uptake
[8] = muscle, normal athymic nude mice, i.v. 1 μg, ex vivo, mean, n = 2–4, read-out: Muscle uptake
[9] = spleen, normal athymic nude mice, i.v. 1 μg, ex vivo, mean, n = 2–4, read-out: Spleen uptake

SMILES | tissue uptake at 2 h [1] [%ID/g] | tissue uptake at 2 h (in vivo, normal athymic nude mice, i.v. 1 μg, ex vivo, mean (± SD), n = 2–4, read-out: Kidney uptake) [%ID/g] | tissue uptake at 2 h [2] [%ID/g] | tissue uptake at 2 h [3] [%ID/g] | tissue uptake at 2 h [4] [%ID/g] | tissue uptake at 2 h [5] [%ID/g] | tissue uptake at 2 h [6] [%ID/g] | tissue uptake at 2 h [7] [%ID/g] | tissue uptake at 2 h [8] [%ID/g] | tissue uptake at 2 h [9] [%ID/g] | Relative kidney retention, % rel. to DOTA-TATE [%] | Kidney uptake (normal athymic nude mice, i.v. 1 μg, ex vivo, mean (± SD), n = 2–4) [%IA/g]
CSCC[C@H](NC(=O)CN1CCN(CC(=O)O)CCN(CC(=O)O)CCN(CC(=O)O)CC1)C(=O)N[C@H](C(=O)N[C@@H](CCCCNC(=O)CCCC(=O)N[C@H](Cc1ccccc1)C(=O)N[C@H]1CSSC[C@@H](C(=O)N[C@H](C(=O)O)[C@@H](C)O)NC(=O)[C@H]([C@@H](C)O)NC(=O)[C@H](CCCCN)NC(=O)[C@@H](Cc2c[nH]c3ccccc23)NC(=O)[C@H](Cc2ccc(O)cc2)NC1=O)C(=O)O)C(C)C [DOTA-MVK(ε)-TATE] | 4 |  |  |  |  |  |  |  |  |  |  | 
C[C@@H](O)[C@H](NC(=O)[C@@H]1CSSC[C@H](NC(=O)[C@@H](Cc2ccccc2)NC(=O)CNC(=O)[C@H](CC(=O)O)NC(=O)[C@H](CC(=O)O)NC(=O)[C@H](CC(=O)O)NC(=O)CNC(=O)CN2CCN(CC(=O)O)CCN(CC(=O)O)CCN(CC(=O)O)CC2)C(=O)N[C@@H](Cc2ccc(O)cc2)C(=O)N[C@H](Cc2c[nH]c3ccccc23)C(=O)N[C@@H](CCCCN)C(=O)N[C@@H]([C@@H](C)O)C(=O)N1)C(=O)O [DOTA-GDDDG-TATE] ({DOTA}-GDDDG[dF]CY[dW]KTCT-OH; disulfide 7-12) | 13 |  |  |  |  |  |  |  |  |  |  | 
C[C@@H](O)[C@H](NC(=O)[C@@H]1CSSC[C@H](NC(=O)[C@@H](Cc2ccccc2)NC(=O)CCCC(=O)Nc2cc(COC(=O)N(C)CCNC(=O)CN3CCN(CC(=O)O)CCN(CC(=O)O)CCN(CC(=O)O)CC3)ccc2O[C@@H]2O[C@H](CO)[C@H](O)[C@H](O)[C@H]2O)C(=O)N[C@@H](Cc2ccc(O)cc2)C(=O)N[C@H](Cc2c[nH]c3ccccc23)C(=O)N[C@@H](CCCCN)C(=O)N[C@@H]([C@@H](C)O)C(=O)N1)C(=O)O [DOTA-β-Gal-TATE] |  | 4.1 |  |  |  |  |  |  |  |  |  | 
C[C@@H](O)[C@H](NC(=O)[C@@H]1CSSC[C@H](NC(=O)[C@@H](Cc2ccccc2)NC(=O)[C@H](Cc2ccc(O)cc2)NC(=O)CNC(=O)CN2CCN(CC(=O)O)CCN(CC(=O)O)CCN(CC(=O)O)CC2)C(=O)N[C@@H](Cc2ccc(O)cc2)C(=O)N[C@H](Cc2c[nH]c3ccccc23)C(=O)N[C@@H](CCCCN)C(=O)N[C@@H]([C@@H](C)O)C(=O)N1)C(=O)O [^111In-DOTA-GY-TATE, metal not drawn] ({DOTA}-GY[dF]CY[dW]KTCT-OH; disulfide 4-9) |  |  | 0.09 | 0.14 | 0.09 | 0.74 | 0.18 | 1.07 | 0.03 | 0.17 | 297 | 
C[C@@H](O)[C@H](NC(=O)[C@@H]1CSSC[C@H](NC(=O)[C@@H](Cc2ccccc2)NC(=O)[C@@H](Cc2ccc(O)cc2)NC(=O)CNC(=O)CN2CCN(CC(=O)O)CCN(CC(=O)O)CCN(CC(=O)O)CC2)C(=O)N[C@@H](Cc2ccc(O)cc2)C(=O)N[C@H](Cc2c[nH]c3ccccc23)C(=O)N[C@@H](CCCCN)C(=O)N[C@@H]([C@@H](C)O)C(=O)N1)C(=O)O [^111In-DOTA-GY*-TATE, metal not drawn] ({DOTA}-G[dY][dF]CY[dW]KTCT-OH; disulfide 4-9) |  |  | 0.06 | 0.1 | 0.06 | 0.63 | 0.17 | 1.17 | 0.02 | 0.16 | 865 | 
C[C@H](CCC(=O)NCC(=O)N[C@H](Cc1ccccc1)C(=O)N[C@H]1CSSC[C@@H](C(=O)N[C@H](C(=O)O)[C@@H](C)O)NC(=O)[C@H]([C@@H](C)O)NC(=O)[C@H](CCCCN)NC(=O)[C@@H](Cc2c[nH]c3ccccc23)NC(=O)[C@H](Cc2ccc(O)cc2)NC1=O)[C@H]1CC[C@H]2[C@@H]3[C@H](O)C[C@@H]4C[C@@H](NC(=O)CNC(=O)CN5CCN(CC(=O)O)CCN(CC(=O)O)CCN(CC(=O)O)CC5)CC[C@]4(C)[C@H]3C[C@H](O)[C@]12C [^111In-DOTA-Chol-TATE, metal not drawn] (X1-G[dF]CY[dW]KTCT-OH; disulfide 3-8) |  |  |  | 0.36 | 0.55 | 0.83 | 1.32 | 1.86 | 0.15 | 0.48 | 159 | 
C[C@@H](O)[C@H](NC(=O)[C@@H]1CSSC[C@H](NC(=O)[C@@H](Cc2ccccc2)NC(=O)CNC(=O)[C@H](CC(=O)O)NC(=O)[C@H](CC(=O)O)NC(=O)[C@H](CC(=O)O)NC(=O)CNC(=O)CN2CCN(CC(=O)O)CCN(CC(=O)O)CCN(CC(=O)O)CC2)C(=O)N[C@@H](Cc2ccc(O)cc2)C(=O)N[C@H](Cc2c[nH]c3ccccc23)C(=O)N[C@@H](CCCCN)C(=O)N[C@@H]([C@@H](C)O)C(=O)N1)C(=O)O [^111In-DOTA-GDDDG-TATE, metal not drawn] ({DOTA}-GDDDG[dF]CY[dW]KTCT-OH; disulfide 7-12) |  |  | 0.05 | 0.07 | 0.04 | 0.11 | 0.07 | 0.25 | 0.02 | 0.05 | 222 | 13.45
C[C@H](CCC(=O)NCC(=O)N[C@H](Cc1ccccc1)C(=O)N[C@H]1CSSC[C@@H](C(=O)N[C@H](C(=O)O)[C@@H](C)O)NC(=O)[C@H]([C@@H](C)O)NC(=O)[C@H](CCCCN)NC(=O)[C@@H](Cc2c[nH]c3ccccc23)NC(=O)[C@H](Cc2ccc(O)cc2)NC1=O)[C@H]1CC[C@H]2[C@@H]3[C@H](O)C[C@@H]4C[C@@H](NC(=O)CNC(=O)CN5CCN(CC(=O)O)CCN(CC(=O)O)CCN(CC(=O)O)CC5)CC[C@]4(C)[C@H]3C[C@H](O)[C@]12C [DOTA-G-Chol-G-TATE] (X1-G[dF]CY[dW]KTCT-OH; disulfide 3-8) | 9.6 |  | 1.7 |  |  |  |  |  |  |  |  | 
C[C@@H](O)[C@H](NC(=O)[C@@H]1CSSC[C@H](NC(=O)[C@@H](Cc2ccccc2)NC(=O)CN2CCN(CC(=O)O)CCN(CC(=O)O)CCN(CC(=O)O)CC2)C(=O)N[C@@H](Cc2ccc(O)cc2)C(=O)N[C@H](Cc2c[nH]c3ccccc23)C(=O)N[C@@H](CCCCN)C(=O)N[C@@H]([C@@H](C)O)C(=O)N1)C(=O)O [DOTA-TATE, reference compound] | 6.1 |  |  |  |  |  |  |  |  |  |  | 
